Data reported in article PMC10912698.

Columns and labels:
[1] = biological target: TssZ-HA (TssZ fused with a HA tag at its carboxyl-terminal) (Pseudomonas aeruginosa PAO1); assay: co-IP; PAO1 lysate co-expressing TssZ-HA (or TssZ^R5A/R9A) and V5-HinK; Anti-HA Affinity Gel, 2 h at 4 °C, 50 mM Tris-HCl pH 8.0, 150 mM NaCl, 0.05% TWEEN-20; blots with anti-V5 and anti-HA; also in strains overexpressing PA2133 (low c-di-GMP) or WspR (high c-di-GMP) and with 0-6.4 μM exogenous c-di-GMP
[2] = biological target: TssZ^R5A/R9A (non-c-di-GMP-binding mutant) as used in the co-IP (Pseudomonas aeruginosa PAO1); assay: as above

## V5-HinK (HinK fused with V5 tag at its amino-terminal) (natural protein)
[1]
  fold change of co-immunoprecipitated V5-HinK, low c-di-GMP lysate (PA2133 overexpressing strain) against the PAO1 control strain: 2.2 fold
[2]
  fold change of co-immunoprecipitated V5-HinK against wild-type TssZ: 3.3 fold
